From US20230287108A1 (published 2023)

Target: T1, recombinant cynomolgus monkey (Macaca fascicularis) transferrin receptor 1 (cTfR1) (cynomolgus monkey (Macaca fascicularis), UniProt Q5RDH6 87-760 (Pongo abelii entry), limits assumed)
T1 construct: Recombinant protein; also called cyTfR1; cyno TfR1
T1 chain: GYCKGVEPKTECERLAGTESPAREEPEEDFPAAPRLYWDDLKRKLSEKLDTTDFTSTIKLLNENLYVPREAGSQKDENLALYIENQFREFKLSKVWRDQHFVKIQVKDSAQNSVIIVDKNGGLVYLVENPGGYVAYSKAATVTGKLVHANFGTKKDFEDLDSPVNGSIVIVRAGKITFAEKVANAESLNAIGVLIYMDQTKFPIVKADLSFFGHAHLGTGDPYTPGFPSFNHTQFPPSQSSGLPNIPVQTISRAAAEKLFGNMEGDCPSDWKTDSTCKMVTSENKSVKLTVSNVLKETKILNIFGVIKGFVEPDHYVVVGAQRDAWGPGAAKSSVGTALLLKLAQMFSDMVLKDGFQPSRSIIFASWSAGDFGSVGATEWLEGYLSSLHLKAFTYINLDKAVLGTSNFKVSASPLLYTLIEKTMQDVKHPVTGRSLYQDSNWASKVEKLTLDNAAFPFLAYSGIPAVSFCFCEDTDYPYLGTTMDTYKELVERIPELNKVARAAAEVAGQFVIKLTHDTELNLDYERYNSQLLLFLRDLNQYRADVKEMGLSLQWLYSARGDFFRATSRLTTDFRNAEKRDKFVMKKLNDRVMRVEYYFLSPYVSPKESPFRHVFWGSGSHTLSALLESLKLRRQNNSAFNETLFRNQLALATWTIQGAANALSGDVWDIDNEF
Experiment: Avg KD, antibody alone; table gives no method

- Kd: 1 nM
B1: 15G11 (control anti-TfR1 antibody) (antibody, V domains shown)
VH: QVQLQQPGAELVKPGASVKLSCKASGYTFTSYWMHWVKQRPGQGLEWIGEINPTNGRTNYIEKFKSKATLTVDKSSSTAYMQLSSLTSEDSAVYYCARGTRAYHYWGQGTSVTVSS
VL: DIQMTQSPASLSVSVGETVTITCRASDNLYSNLAWYQQKQGKSPQLLVYDATNLADGVPSRFSGSGSGTQYSLKINSLQSEDFGTYYCQHFWGTPLTFGAGTKLELK
